Here are results for six molecules from patent US20200262913A1 (ZymoGenetics, published 2020).

To fix the notation:
T1: recombinant human IL-31 (hIL-31, BHK produced, A1277F, zcytor17lig CEE) (human, UniProt Q6EBC2 24-164)
T1 construct: also called recombinant hIL-31
T1 sequence: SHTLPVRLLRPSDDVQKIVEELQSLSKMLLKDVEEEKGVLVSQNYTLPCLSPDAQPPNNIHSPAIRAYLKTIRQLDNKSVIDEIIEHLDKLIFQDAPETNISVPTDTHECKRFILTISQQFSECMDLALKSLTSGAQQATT

T2: recombinant human IL-31 (as used in the NHK STAT3 phosphorylation assay of Example 5) (human, UniProt Q6EBC2 24-164, limits assumed)
T2 sequence: T1 sequence

B1: humanized 292.12.3.1 construct clone 30 (12VH1-gly + HC(F29L, V78A, R94F) + LC(F71Y)) (antibody, human IgG4, V domains shown)
VH: QVQLVQSGAEVKKPGASVKVSCKASGYTLTRYWMQWVRQAPGQGLEWMGAIYPGDGDTRYSQKFQGRVTMTRDTSISTAYMELSSLRSEDTAVYYCAFPDGYYAAPYGMDYWGQGTLVTVSS
VL: DIQMTQSPSSLSASVGDRVTITCRASGNIHNYLAWYQQKPGKVPKLLIYNAKTLADGVPSRFSGSGSGTDYTLTISSLQPEDVATYYCQHFWSTPWTFGQGTKVEIKR
B2: humanized 292.12.3.1 construct clone 33 (12VH1(germ)-gly + fback) (antibody, human IgG4, V domains shown)
VH: B1 VH with M70L, R72A, T74K, I76T
VL: B1 VL with G66R, G68E, D70Q, T72S
B3: humanized 292.12.3.1 construct clone 32 (12VH1-gly + HC(F29L, R71A, V78A, R94F) + LC(F71Y)) (antibody, human IgG4, V domains shown)
VH: B1 VH with R72A
VL: B1 VL
B4: humanized 292.12.3.1 construct clone 36 (12VH1(germ)-gly + HC(F29L, T73K, R94F) + LC(F71Y)) (antibody, human IgG4, V domains shown)
VH: B1 VH with T74K, I76T, A79V
VL: B1 VL
B5: humanized 292.12.3.1 construct clone 35 (12VH1-gly + HC(F29L, R94F)) (antibody, human IgG4, V domains shown)
VH: B1 VH with A79V
VL: B1 VL with Y71F
B6: humanized 292.12.3.1 construct clone 31 (12VH1-gly + HC(F29L, M69L, R71A, V78A, R94F) + LC(F71Y)) (antibody, human IgG4, V domains shown)
VH: B1 VH with M70L, R72A
VL: B1 VL

Positions count from the first letter of the chain named. Names may count otherwise.

One test concerns the target T1, recombinant human IL-31 (hIL-31, BHK …). Put plainly: SPR (Biacore), against parent 292.12.3.1. As to the method:
(§1) The purified monoclonal antibodies were immobilized in individual flow cells on a CM5 type sensor chip. Immobilizations were performed using a standard amine coupling procedure, aiming for an immobilization level of 500 Resonance Units (RU). The antibodies were diluted to 1-5 ug/ml in 10 mM NaAc pH 4.5.
(§2) HPS-EP pH 7.4 (10 mM HEPES, 150 mM NaCl, 3 mM EDTA and 0.005% Polysorbat P20) was used as running buffer, and diluents for the recombinant hIL-31 (hIL-31, BHK produced, A1277F, zcytor17lig CEE). The hIL-31 was tested in a 3-fold dilution series from 333.3 nM to 1.4 nM. Association (injection) was 4 min., followed by a 20 min. dissociation (wash) period. Flow rate was 50 ul/min. Experiments were performed at 25OC. Regeneration of the surface was accomplished by injection of 30 sec. pulse of 10 mM Glycin-HCl pH 1.8 or 1M formic acid, at a 30 ul/min flow rate. Detection in all flow cells simultaneously. Flow cell #1 contained no immobilized antibody, and was used for subtraction of background and bulk.
(§3) The kinetic parameters were calculated by global fitting of the data using a 1:1 langmuir binding model. Data was inspected for mass-transport limitations prior to calculation of the kinetic parameters. In some experiments the Rmax was fitted locally, and the RI constant at 0.
In general terms: Surface plasmon resonance follows binding to a sensor surface in real time, without labels.
As for B1, the “Relative potency loss (KD)” value is ~0.5 x to parent and the “Relative potency loss (kd)” value was ~1.5 x to parent.

On to B2, for which the “Relative potency loss (KD)” value is ~0.6 x to parent.

With B3, the “Relative potency loss (KD)” value was ~0.3 x to parent.

Consider B4, for which the “Relative potency loss (KD)” value was ~0.5 x to parent and the “Relative potency loss (kd)” value is ~1.5 x to parent.

In the case of B5, the “Relative potency loss (KD)” value was ~0.7 x to parent and the “Relative potency loss (kd)” value was ~1.5 x to parent.

Take B6: the “Relative potency loss (KD)” value is ~0.4 x to parent.

Another test concerns the target recombinant human IL-31 (C108S), produced in E. coli by ZymoGenetics, MW 18 kDa (human), Q6EBC2. Put plainly: cell-based or functional assay.
For the molecule B1, the Average Fold loss in potency relative to 292.12.3.1, BAF-3(hIL-31R) proliferation assay was determined as 37.1 fold and the Average Potency (IC50), inhibition of hIL-31-induced proliferation of BAF-3(hIL-31R) cells is 57.8 nM.

In the case of B2, the Average Fold loss in potency relative to 292.12.3.1, BAF-3(hIL-31R) proliferation assay worked out at 2.3 fold and the Average Potency (IC50), inhibition of hIL-31-induced proliferation of BAF-3(hIL-31R) cells was determined as 3.1 nM.

With B3, the Average Fold loss in potency relative to 292.12.3.1, BAF-3(hIL-31R) proliferation assay stood at 14.7 fold and the Average Potency (IC50), inhibition of hIL-31-induced proliferation of BAF-3(hIL-31R) cells was 18.9 nM.

Regarding B4, the Average Potency (IC50), inhibition of hIL-31-induced proliferation of BAF-3(hIL-31R) cells came out at 14.1 nM.

With B5, the Average Fold loss in potency relative to 292.12.3.1, BAF-3(hIL-31R) proliferation assay is 75.1 fold and the Average Potency (IC50), inhibition of hIL-31-induced proliferation of BAF-3(hIL-31R) cells came to 62.1 nM.

Take B6: the Average Fold loss in potency relative to 292.12.3.1, BAF-3(hIL-31R) proliferation assay amounted to 25.1 fold and the Average Potency (IC50), inhibition of hIL-31-induced proliferation of BAF-3(hIL-31R) cells was 32.4 nM.

A further test has as its target T2, recombinant human IL-31 (as used in the …). Put plainly: cell-based or functional assay.
On to B1, for which the “IC50, IL-31-induced STAT3 phosphorylation in NHK, Exp 8” value (“IC50 … Exp 8” for short) is 14.8 nM and the “IC50, IL-31-induced STAT3 phosphorylation in NHK, Exp 9” value (shortened to “IC50 … Exp 9”) amounted to 8.71 nM.

Take B2: the “IC50 … Exp 8” value amounted to 4.08 nM; the “IC50 … Exp 9” value is 5.68 nM; the “IC50, IL-31-induced STAT3 phosphorylation in NHK, Exp 10” value (“IC50 … Exp 10” below) was 13.6 nM.

Consider B3, for which the “IC50 … Exp 8” value was found to be 11.5 nM and the “IC50 … Exp 9” value came out at 6.43 nM.

With B4, the “IC50 … Exp 10” value is 8.95 nM.

For the molecule B5, the “IC50 … Exp 10” value stood at 12 nM.

Turning to B6, the “IC50 … Exp 8” value came out at 11 nM and the “IC50 … Exp 9” value stood at 7.82 nM.

In a further test the target is T1, recombinant human IL-31 (hIL-31, BHK …). As to the kind of experiment: SPR (Biacore), mAb amine-coupled to CM5 chip, hIL-31 injected. As to the method:
as §1, §2, §3
In general, Kd refers to the constant that tells how readily two partners part at equilibrium. Broadly, the koff is a measure of how fast the partners let go of each other. As usually defined, the kon is a measure of how fast the partners come together. For B1, the Kd was 1.1 nM, the koff turned out to be 9e-05 s⁻¹ and the kon came to 78000 M⁻¹ s⁻¹.

Take B2: the Kd was determined as 1.3 nM, the koff was 6.8e-05 s⁻¹ and the kon turned out to be 52000 M⁻¹ s⁻¹.

Turning to B3, the Kd stood at 0.64 nM, the koff came to 5.9e-05 s⁻¹ and the kon was 93000 M⁻¹ s⁻¹.

Take B4: the Kd worked out at 1.6 nM, the koff was 0.000108 s⁻¹ and the kon amounted to 68000 M⁻¹ s⁻¹.

Turning to B5, the Kd came out at 1.6 nM, the koff came out at 0.0001 s⁻¹ and the kon was 64000 M⁻¹ s⁻¹.

In the case of B6, the Kd amounted to 0.77 nM, the koff came to 7e-05 s⁻¹ and the kon stood at 92000 M⁻¹ s⁻¹.
